Data taken from US11840574B2, “Anti-DR5 antibody and use thereof” (DONG-A ST CO., LTD., priority 2017, dated 2023).

How the values were obtained:
Human DR5 [1] = target: T1, Human DR5 (Homo sapiens, UniProt O14763); assay: TRAIL competitive enzyme-linked immunosorbent assay; format: binding; conditions: 0.01-400 nM of TRAIL protein, absorbance at 405 nm
Experimental: In order to examine antigen-binding characteristics of the antibodies selected in Example 3, a TRAIL competitive enzyme-linked immunosorbent assay was conducted. ELISA plates were coated with 0.1 μg/ml human DR5 (R&D systems, U.S.A.) at 4° C. Thereafter, the plates were incubated with 0.01 nM-1440 nM of antibodies (D0, DA20, DA21, DA21, DA22, and DA23) together with 0.01-400 nM of TRAIL protein for 2 hours. After the plates were washed three times with PBST (0.1% bovine serum albumin and Tween-20 in PBS), HRP (horse radish peroxidase)-conjugated anti-human immunoglobulin Fc was added to each well and incubated for 1 hour. After three washes with PBST, color development was performed for 20 min with ABTS (Thermo, U.S.A.). When the color development reached to a certain level, the reaction was terminated with 1 N sulfuric acid. Absorbance at 405 nm was measured using a spectrophotometer (Molecular Device, U.S.A.) and is depicted in FIGS. 8a and 8b. The antibody AP disclosed in Example (7-1) was used as a control.

Human DR5 [2] = target: T1, Human DR5; assay: Binding affinity of antibody to human DR5 (BIAcore, CM5 chip); conditions: for Ka(1/Ms) / Ka: association rate, Human DR5, 1:1 Langmuir binding model; for Kd: equilibrium dissociation constant, Human DR5
Experimental: In order to measure affinity, human DR5 was coupled to carboxylated dextran biosensor chips (CM5, GE) according to the manufacturer's instruction. Association and dissociation rates were assessed by injecting IgG proteins that were 2-fold serially diluted to 5 nM, 2.5 nM, 1.25 nM, 0.625 nM, 0.313 nM, and 0.156 nM.
Association and dissociation rates were depicted in association and dissociation sensorgrams and calculated using a simple 1:1 Langmuir binding model (BIAcore X100 Evaluation Software, ver. 2.0). The equilibrium dissociation constants (KD), which is the ratio of dissociation constant (Kd) to association constant (Ka), were confirmed to be in the sub-nanomolar range. Measurements of the binding of antibody D0 and DA1 to DA35 of the present disclosure to DR5 are given in Table 11 below (antibody names are given as the names of the clones from which the antibodies were derived). A representative sensorgram for D0 is depicted in FIG. 1.

B1: DA20: humanized or deimmunized variant of parental clone D0; CDRs SEQ ID NO 1, 2, 7 / 4, 10, 14 (antibody, V domains shown)
VH: EVQLVESGGGLVQPGGSLRLSCAASGFTFSSFNMLWVRQAPGKGLEWVAGIGKSDRYTGYGSAVKGRFTISRDDSKSTVYLQMNSLRAEDTAVYYCVRDAGSGCGSGGWTGACIDTWGQGTLVTVSS
VL: DIQMTQSPSSLSASVGDRVTITCSGGDSYAGSYYYGWYQQKPGKAPKTLIYNNNNRPSGVPSRFSGSRSGTDFTLTISSLQPEDFATYYCGSRDSAGMGAFGQGTKVEIK
- antigen binding in the presence of TRAIL (Human DR5 [1]): maintained a certain level of antigen binding irrespective of TRAIL concentrations
- Ka(1/Ms) (Human DR5 [2]): 1.00 × 10^06 1/Ms
- Kd (Human DR5 [2]): 0.012 nM

B2: DA2: humanized or deimmunized variant of parental clone D0; CDRs SEQ ID NO 1, 2, 7 / 4, 10, 13 (antibody, V domains shown)
VH: EVQLVESGGGLVQPGGSLRLSCAASGFTFSSFNMLWVRQAPGKGLEWVAGIGKSDRYTGYGSAVKGRFTISRDDSKSTVYLQMNSLRAEDTAVYYCVRDAGSGCGSGGWTGACIDTWGQGTLVTVSS
VL: DIQMTQSPSSLSASVGDRVTITCSGGDSYAGSYYYGWYQQKPGKAPKTLIYNNNNRPSGVPSRFSGSRSGTDFTLTISSLQPEDFATYYCGSRDSSYVGIFGQGTKVEIK
- Ka (Human DR5 [2]): 1.9e+06 M⁻¹ s⁻¹

B3: DA21: humanized or deimmunized variant of parental clone D0; CDRs SEQ ID NO 1, 2, 7 / 4, 10, 16 (antibody, V domains shown)
VH: EVQLVESGGGLVQPGGSLRLSCAASGFTFSSFNMLWVRQAPGKGLEWVAGIGKSDRYTGYGSAVKGRFTISRDDSKSTVYLQMNSLRAEDTAVYYCVRDAGSGCGSGGWTGACIDTWGQGTLVTVSS
VL: DIQMTQSPSSLSASVGDRVTITCSGGDSYAGSYYYGWYQQKPGKAPKTLIYNNNNRPSGVPSRFSGSRSGTDFTLTISSLQPEDFATYYCGSRDSSGAGGFGQGTKVEIK
- antigen binding in the presence of TRAIL (Human DR5 [1]): maintained a certain level of antigen binding irrespective of TRAIL concentrations
- Ka(1/Ms) (Human DR5 [2]): 1.11 × 10^06 1/Ms
- Kd (Human DR5 [2]): 0.00643 nM

B4: DA4: humanized or deimmunized variant of parental clone D0; CDRs SEQ ID NO 1, 2, 7 / 4, 10, 13 (antibody, V domains shown)
VH: EVQLVESGGGLVQPGGSLRLSCAASGFTFSSFNMLWVRQAPGKGLEWVAGIGKSDRYTGYGSAVKGRFTISRDDSKNTVYLQMNSLRAEDTAVYYCVRDAGSGCGSGGWTGACIDTWGQGTLVTVSS
VL: DIQMTQSPSSLSASVGDRVTITCSGGDSYAGSYYYGWYQQKPGKAPKTLIYNNNNRPSGVPSRFSGSTSGTDFTLTISSLQPEDFATYYCGSRDSSYVGIFGQGTKVEIK
- Ka (Human DR5 [2]): 1.2e+06 M⁻¹ s⁻¹

B5: DA3: humanized or deimmunized variant of parental clone D0; CDRs SEQ ID NO 1, 2, 7 / 4, 10, 13 (antibody, V domains shown)
VH: EVQLVESGGGLVQPGGSLRLSCAASGFTFSSFNMLWVRQAPGKGLEWVAGIGKSDRYTGYGSAVKGRFTISRDTSKSTVYLQMNSLRAEDTAVYYCVRDAGSGCGSGGWTGACIDTWGQGTLVTVSS
VL: DIQMTQSPSSLSASVGDRVTITCSGGDSYAGSYYYGWYQQKPGKAPKTLIYNNNNRPSGVPSRFSGSTSGTDFTLTISSLQPEDFATYYCGSRDSSYVGIFGQGTKVEIK
- Ka (Human DR5 [2]): 4.9e+06 M⁻¹ s⁻¹

B6: DA1: humanized or deimmunized variant of parental clone D0; CDRs SEQ ID NO 1, 2, 7 / 4, 10, 13 (antibody, V domains shown)
VH: EVQLVESGGGLVQPGGSLRLSCAASGFTFSSFNMLWVRQAPGKGLEWVAGIGKSDRYTGYGSAVKGRFTISRDDSKSTVYLQMNSLRAEDTAVYYCVRDAGSGCGSGGWTGACIDTWGQGTLVTVSS
VL: DIQMTQSPSSLSASVGDRVTITCSGGDSYAGSYYYGWYQQKPGKAPKTLIYNNNNRPSGVPSRFSGSTSGTDFTLTISSLQPEDFATYYCGSRDSSYVGIFGQGTKVEIK
- Ka (Human DR5 [2]): 4.9e+06 M⁻¹ s⁻¹

B7: DA32: humanized or deimmunized variant of parental clone D0; CDRs SEQ ID NO 1, 2, 7 / 4, 10, 13 (antibody, V domains shown)
VH: AVTLDESGGGLQTPGGGLSLVCKGSGFTFSSFNMLWVRQAPGKGLEWVAGIGKSDRYTGYGSAVKGRATISRDDGQSTVRLQLNNLRAEDTAVYYCVKDAGSGCGSGGWTGACIDTWGHGTEVIVSS
VL: LTQPSSVSANLGGTVEITCSGGDSYAGSYYYGWYQQKAPGSAPVTVIYNNNNRPSNIPSRFSGSTSGSTATLTITGVQAEDEAVYFCGSRDSSYVGIFGAGTTLTVL
- Ka(1/Ms) (Human DR5 [2]): 1.14 × 10^06 1/Ms
- Kd (Human DR5 [2]): 0.0751 nM

B8: DA35: humanized or deimmunized variant of parental clone D0; CDRs SEQ ID NO 1, 2, 7 / 4, 10, 13 (antibody, V domains shown)
VH: AVTLDESGGGLQTPGGGLSLVCKGSGFTFSSFNMLWVRQAPGKGLEWVAGIGKSDRYTGYGSAVKGRATISRDDGQSTARLQMNSLRAEDTAVYYCVKDAGSGCGSGGWTGACIDTWGHGTEVIVSS
VL: LTQPSSVSANLGGTVEITCSGGDSYAGSYYYGWYQQKAPGSAPVTVIYNNNNRPSNIPSRFSGSTSGSTATLTITGVQAEDEATYFCGSRDSSYVGIFGAGTTLTVL
- Ka(1/Ms) (Human DR5 [2]): 1.13 × 10^06 1/Ms
- Kd (Human DR5 [2]): 0.0801 nM

B9: DA33: humanized or deimmunized variant of parental clone D0; CDRs SEQ ID NO 1, 2, 7 / 4, 10, 13 (antibody, V domains shown)
VH: AVTLDESGGGLQTPGGGLSLVCKGSGFTFSSFNMLWVRQAPGKGLEWVAGIGKSDRYTGYGSAVKGRATISRDDGQSTARLQLNNLRAEDTAVYYCVKDAGSGCGSGGWTGACIDTWGHGTEVIVSS
VL: LTQPSSVSANLGGTVEITCSGGDSYAGSYYYGWYQQKAPGSAPVTVIYNNNNRPSNIPSRFSGSTSGSTATLTITGVQAEDEATYFCGSRDSSYVGIFGAGTTLTVL
- Ka(1/Ms) (Human DR5 [2]): 1.24 × 10^06 1/Ms
- Kd (Human DR5 [2]): 0.0788 nM

B10: DA34: humanized or deimmunized variant of parental clone D0; CDRs SEQ ID NO 1, 2, 7 / 4, 10, 13 (antibody, V domains shown)
VH: AVTLDESGGGLQTPGGGLSLVCKGSGFTFSSFNMLWVRQAPGKGLEWVAGIGKSDRYTGYGSAVKGRATISRDDGQSTAYLQMNSLRAEDTAVYYCVKDAGSGCGSGGWTGACIDTWGHGTEVIVSS
VL: LTQPSSVSANLGGTVEITCSGGDSYAGSYYYGWYQQKAPGSAPVTVIYNNNNRPSNIPSRFSGSTSGSTATLTITGVQAEDEATYYCGSRDSSYVGIFGAGTTLTVL
- Ka(1/Ms) (Human DR5 [2]): 1.00 × 10^06 1/Ms
- Kd (Human DR5 [2]): 0.0942 nM
